Target: T1, recombinant human c-Met/Fc chimera (R&D systems) (human)
T1 construct: R&D Systems 358-MT/CF, expressed in NS0 cells; also called hc-Met/Fc; hu c-Met/Fc
Assay: HGF-competition Alphascreen

T1 sequence (chain, as listed by the source mutant limits assumed): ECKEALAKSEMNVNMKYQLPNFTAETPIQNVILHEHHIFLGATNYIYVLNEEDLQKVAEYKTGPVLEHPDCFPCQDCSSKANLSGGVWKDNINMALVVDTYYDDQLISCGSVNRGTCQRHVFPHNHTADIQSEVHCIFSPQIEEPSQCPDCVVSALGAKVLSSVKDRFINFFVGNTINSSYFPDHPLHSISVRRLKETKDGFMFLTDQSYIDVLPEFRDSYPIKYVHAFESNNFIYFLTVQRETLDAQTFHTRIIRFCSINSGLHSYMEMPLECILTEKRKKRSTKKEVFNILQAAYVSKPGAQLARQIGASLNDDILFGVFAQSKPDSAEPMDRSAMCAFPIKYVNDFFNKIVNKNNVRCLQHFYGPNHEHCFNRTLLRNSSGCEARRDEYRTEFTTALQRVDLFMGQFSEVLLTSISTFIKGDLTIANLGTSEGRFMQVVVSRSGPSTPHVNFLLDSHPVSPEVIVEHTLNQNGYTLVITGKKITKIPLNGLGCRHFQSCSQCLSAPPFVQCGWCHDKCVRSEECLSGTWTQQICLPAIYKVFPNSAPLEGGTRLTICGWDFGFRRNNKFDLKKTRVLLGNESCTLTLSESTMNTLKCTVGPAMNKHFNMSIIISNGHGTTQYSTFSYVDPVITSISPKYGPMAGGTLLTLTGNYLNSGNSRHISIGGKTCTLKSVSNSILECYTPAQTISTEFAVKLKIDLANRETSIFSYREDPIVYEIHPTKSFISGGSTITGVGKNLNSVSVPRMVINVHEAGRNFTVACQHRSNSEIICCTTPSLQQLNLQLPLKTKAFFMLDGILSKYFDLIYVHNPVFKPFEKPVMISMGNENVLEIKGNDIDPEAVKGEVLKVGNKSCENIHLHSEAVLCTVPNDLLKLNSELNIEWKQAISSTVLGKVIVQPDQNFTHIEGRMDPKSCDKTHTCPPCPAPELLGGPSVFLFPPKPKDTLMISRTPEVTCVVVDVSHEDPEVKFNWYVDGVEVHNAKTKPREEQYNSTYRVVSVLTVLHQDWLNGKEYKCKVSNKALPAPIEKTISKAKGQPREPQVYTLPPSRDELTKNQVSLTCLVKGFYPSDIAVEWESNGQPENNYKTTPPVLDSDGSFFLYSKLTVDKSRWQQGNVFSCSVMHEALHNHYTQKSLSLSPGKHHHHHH

| Binder | IC50 [nM] |
| --- | --- |
| A007900738 (VHH, 33H10 variant; the entry holds the 3xFLAG-His6 tag) VHH: EVQLVESGGGLVQPGGSLRLSCAASGFTFDDYAIGWFRQAPGEEREGVSSISSTYGLTYYADSVKGRFTISSSNSKNTVYLQMNNLKPEDTAVYYCAATPIERLGLDAYEYDYWGQGTLVTVSS | 0.69 |
| A007900739 (VHH, 33H10 variant; the entry holds the 3xFLAG-His6 tag) VHH: EVQLVESGGGLVQPGGSLRLSCAASGFTFDDYAIGWFRQAPGEEREGVSSISSTYGLTYYADSVKGRFTISSSNSKNTVYLQMNSLKPEDTAVYYCAATPIERLGLDAYEYDYWGQGTLVTVSS | 0.58 |
| A007900740 (VHH, 33H10 variant; the entry holds the 3xFLAG-His6 tag) VHH: EVQLVESGGGLVQPGGSLRLSCAASGFTFDDYAIGWFRQAPGEEREGVSSISSTYGLTYYADSVKGRFTISSDNSKNTVYLQMNNLKPEDTAVYYCAATPIERLGLDAYEYDYWGQGTLVTVSS | 1.1 |
| A007900741 (VHH, 33H10 variant; the entry holds the 3xFLAG-His6 tag) VHH: EVQLVESGGGLVQPGGSLRLSCAASGFTFDDYAIGWFRQAPGEEREGVSSISSTYGLTYYADSVKGRFTISSDNSKNTVYLQMNSLKPEDTAVYYCAATPIERLGLDAYEYDYWGQGTLVTVSS | 0.85 |
| A007900742 (VHH, 33H10 variant; the entry holds the 3xFLAG-His6 tag) VHH: EVQLVESGGGLVQPGGSLRLSCAASGFTFDDYAIGWFRQAPGEEREGVSSISSTYGLTYYADSVKGRFTISRSNSKNTVYLQMNNLKPEDTAVYYCAATPIERLGLDAYEYDYWGQGTLVTVSS | 8.3 |
| A007900743 (VHH, 33H10 variant; the entry holds the 3xFLAG-His6 tag) VHH: EVQLVESGGGLVQPGGSLRLSCAASGFTFDDYAIGWFRQAPGEEREGVSSISSTYGLTYYADSVKGRFTISRDNSKNTVYLQMNNLKPEDTAVYYCAATPIERLGLDAYEYDYWGQGTLVTVSS | 26 |
| A007900745 (VHH, 33H10 variant; the entry holds the 3xFLAG-His6 tag) VHH: EVQLVESGGGLVQPGGSLRLSCAASGFTFDDYAIGWFRQAPGEEREGVSSISSTYGLTYYADSVKGRFTISRDNSKNTVYLQMNSLKPEDTAVYYCAATPIERLGLDAYEYDYWGQGTLVTVSS | 18 |
| A007900746 (VHH, 33H10 variant; the entry holds the 3xFLAG-His6 tag) VHH: EVQLVESGGGLVQPGGSLRLSCAASGFTFDDYAIGWFRQAPGKEREGVSSISSTYGLTYYADSVKGRFTISSSNSKNTVYLQMNNLKPEDTAVYYCAATPIERLGLDAYEYDYWGQGTLVTVSS | 2.5 |
| A007900747 (VHH, 33H10 variant; the entry holds the 3xFLAG-His6 tag) VHH: EVQLVESGGGLVQPGGSLRLSCAASGFTFDDYAIGWFRQAPGKEREGVSSISSTYGLTYYADSVKGRFTISSSNSKNTVYLQMNSLKPEDTAVYYCAATPIERLGLDAYEYDYWGQGTLVTVSS | 2.5 |

Results, then the binder that gave them:

| IC50 [nM] | Binder |
| --- | --- |
| 3.5 | A007900748 (VHH, 33H10 variant; the entry holds the 3xFLAG-His6 tag) VHH: EVQLVESGGGLVQPGGSLRLSCAASGFTFDDYAIGWFRQAPGKEREGVSSISSTYGLTYYADSVKGRFTISSDNSKNTVYLQMNNLKPEDTAVYYCAATPIERLGLDAYEYDYWGQGTLVTVSS |
| 3.4 | A007900749 (VHH, 33H10 variant; the entry holds the 3xFLAG-His6 tag) VHH: EVQLVESGGGLVQPGGSLRLSCAASGFTFDDYAIGWFRQAPGKEREGVSSISSTYGLTYYADSVKGRFTISSDNSKNTVYLQMNSLKPEDTAVYYCAATPIERLGLDAYEYDYWGQGTLVTVSS |
| 42 | A007900750 (VHH, 33H10 variant; the entry holds the 3xFLAG-His6 tag) VHH: EVQLVESGGGLVQPGGSLRLSCAASGFTFDDYAIGWFRQAPGKEREGVSSISSTYGLTYYADSVKGRFTISRSNSKNTVYLQMNNLKPEDTAVYYCAATPIERLGLDAYEYDYWGQGTLVTVSS |
| 100 | A007900751 (VHH, 33H10 variant; the entry holds the 3xFLAG-His6 tag) VHH: EVQLVESGGGLVQPGGSLRLSCAASGFTFDDYAIGWFRQAPGKEREGVSSISSTYGLTYYADSVKGRFTISRDNSKNTVYLQMNNLKPEDTAVYYCAATPIERLGLDAYEYDYWGQGTLVTVSS |

— patent publication US20120244164A1 (published 2012)
